Measurements as given in patent US20230332251A1.

Molecular target: histidine kinase UzcS (Caulobacter crescentus NA1000)
Experiment: cell-based or functional assay

Sequence of histidine kinase UzcS (Caulobacter crescentus NA1000) (chain, as listed by the source limits assumed, form in doubt): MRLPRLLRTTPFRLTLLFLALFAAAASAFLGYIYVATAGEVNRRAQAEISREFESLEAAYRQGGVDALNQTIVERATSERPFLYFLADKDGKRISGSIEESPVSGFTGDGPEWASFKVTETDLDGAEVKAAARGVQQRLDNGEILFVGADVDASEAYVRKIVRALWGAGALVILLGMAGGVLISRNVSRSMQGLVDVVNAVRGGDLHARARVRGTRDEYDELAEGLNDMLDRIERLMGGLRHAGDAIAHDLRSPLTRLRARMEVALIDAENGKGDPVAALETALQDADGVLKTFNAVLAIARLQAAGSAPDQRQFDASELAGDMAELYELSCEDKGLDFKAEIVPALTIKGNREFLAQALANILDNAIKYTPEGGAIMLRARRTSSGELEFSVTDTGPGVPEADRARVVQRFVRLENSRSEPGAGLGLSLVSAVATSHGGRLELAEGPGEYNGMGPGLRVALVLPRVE

- fold decrease in U detection limit of UzcRS (reporter fluorescence in C. crescentus, +UzcY versus -UzcY, FIG. 12): > 4 fold
Substance: UzcY (protein encoded by CCNA_03497)
